The experiment deals with T1, Y174A PBF-HA (UniProt P53801 33-180, Y174A).
T1 construct: also called PBF mutant Y174A; phospho-null PBF mutant (Y174A)
T1 sequence (looked up): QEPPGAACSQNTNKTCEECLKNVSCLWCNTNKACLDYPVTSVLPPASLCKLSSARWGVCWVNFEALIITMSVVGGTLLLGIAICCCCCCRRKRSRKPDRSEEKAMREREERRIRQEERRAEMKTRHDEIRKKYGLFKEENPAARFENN
Briefly: co-IP; myc-tagged CTTN and HA-tagged PBF (WT or Y174A) transfected in MCF-7 and HeLa cells; in HeLa also after 50 nM dasatinib or vehicle. The note with it: partners not purified.

B1: human Myc-CTTN (cortactin) (natural protein, UniProt Q14247 1-550, looked up)
chain: MWKASAGHAVSIAQDDAGADDWETDPDFVNDVSEKEQRWGAKTVQGSGHQEHINIHKLRENVFQEHQTLKEKELETGPKASHGYGGKFGVEQDRMDKSAVGHEYQSKLSKHCSQVDSVRGFGGKFGVQMDRVDQSAVGFEYQGKTEKHASQKDYSSGFGGKYGVQADRVDKSAVGFDYQGKTEKHESQRDYSKGFGGKYGIDKDKVDKSAVGFEYQGKTEKHESQKDYVKGFGGKFGVQTDRQDKCALGWDHQEKLQLHESQKDYKTGFGGKFGVQSERQDSAAVGFDYKEKLAKHESQQDYSKGFGGKYGVQKDRMDKNASTFEDVTQVSSAYQKTVPVEAVTSKTSNIRANFENLAKEKEQEDRRKAEAERAQRMAKERQEQEEARRKLEEQARAKTQTPPVSPAPQPTEERLPSSPVYEDAASFKAELSYRGPVSGTEPEPVYSMEAADYREASSQQGLAYATEAVYESAEAPGHYPAEDSTYDEYENDLGITAVALYDYQAAGDDEISFDPDDIITNIEMIDDGWWRGVCKGRYGLFPANYVELRQ
notes: cortactin (CTTN), human; Origene plasmid No. RC223259; the isoform of the clone follows from the catalogue number; also called myc-tagged CTTN; source: plasmid bought: Origene
Turning to B1, the “fold change of binding against WT PBF” value was above 2 fold.
